The supplement of paper PMC5998384

What was measured:
HeLa Kyoto [1] = experiment: solubility in G1/S (NP-40 vs SDS abundance) (log2 ratio); higher = more soluble; details: cell cycle stage: G1/S
HeLa Kyoto [2] = experiment: melting temperature (median over replicates), in situ; higher = more thermally stable
HeLa Kyoto [3] = experiment: solubility change mitosis vs G1/S (difference of NP-40 vs SDS log2 ratios) (log2 ratio difference); higher = more soluble in mitosis
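Throughout, for melting temperature (median over replicates), in situ: HeLa Kyoto cells synchronized by double thymidine or nocodazole block, proteins quantified by TMT10plex mass spectrometry, three independent biological replicates.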
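Throughout, for solubility change mitosis vs G1/S (difference of NP-40 vs SDS log2 ratios): synchronized HeLa Kyoto cells (double thymidine block for G1/S, nocodazole release for mitosis), protein amounts in NP-40 versus SDS lysates quantified by mass spectrometry, three biological replicates.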
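Throughout, for solubility in G1/S (NP-40 vs SDS abundance): HeLa Kyoto cells arrested at G1/S by double thymidine block, proteins quantified by TMT10plex mass spectrometry in mild NP-40 versus SDS extracts, three biological replicates.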

Sequence | solubility in G1/S (log2) (HeLa Kyoto [1]) | melting temperature (HeLa Kyoto [2]; cell cycle stage: G1/S) | melting temperature (HeLa Kyoto [2]; cell cycle stage: mitosis) | solubility change mitosis (log2) (HeLa Kyoto [3])
MEQAPNMAEPRGPVDHGVQIRFITEPVSGAEMGTLRRGGRRPAKDARASTYGVAVRVQGIAGQPFVVLNSGEKGGDSFGVQIKGANDQGASGALSSDLELPENPYSQVKGFPAPSQSSTSDEEPGAYWNGKLLRSHSQASLAGPGPVDPSNRSNSMLELAPKVASPGSTIDTAPLSSVDSLINKFDSQLGGQARGRTGRRTRMLPPEQRKRSKSLDSRLPRDTFEERERQSTNHWTSSTKYDNHVGTSKQPAQSQNLSPLSGFSRSRQTQDWVLQSFEEPRRSAQDPTMLQFKSTPDLLRDQQEAAPPGSVDHMKATIYGILREGSSESETSVRRKVSLVLEKMQPLVMVSSGSTKAVAGQGELTRKVEELQRKLDEEVKKRQKLEPSQVGLERQLEEKTEECSRLQELLERRKGEAQQSNKELQNMKRLLDQGEDLRHGLETQVMELQNKLKHVQGPEPAKEVLLKDLLETRELLEEVLEGKQRVEEQLRLRERELTALKGALKEEVASRDQEVEHVRQQYQRDTEQLRRSMQDATQDHAVLEAERQKMSALVRGLQRELEETSEETGHWQSMFQKNKEDLRATKQELLQLRMEKEEMEEELGEKIEVLQRELEQARASAGDTRQVEVLKKELLRTQEELKELQAERQSQEVAGRHRDRELEKQLAVLRVEADRGRELEEQNLQLQKTLQQLRQDCEEASKAKMVAEAEATVLGQRRAAVETTLRETQEENDEFRRRILGLEQQLKETRGLVDGGEAVEARLRDKLQRLEAEKQQLEEALNASQEEEGSLAAAKRALEARLEEAQRGLARLGQEQQTLNRALEEEGKQREVLRRGKAELEEQKRLLDRTVDRLNKELEKIGEDSKQALQQLQAQLEDYKEKARREVADAQRQAKDWASEAEKTSGGLSRLQDEIQRLRQALQASQAERDTARLDKELLAQRLQGLEQEAENKKRSQDDRARQLKGLEEKVSRLETELDEEKNTVELLTDRVNRGRDQVDQLRTELMQERSARQDLECDKISLERQNKDLKTRLASSEGFQKPSASLSQLESQNQLLQERLQAEEREKTVLQSTNRKLERKVKELSIQIEDERQHVNDQKDQLSLRVKALKRQVDEAEEEIERLDGLRKKAQREVEEQHEVNEQLQARIKSLEKDSWRKASRSAAESALKNEGLSSDEEFDSVYDPSSIASLLTESNLQTSSC [CGN] | -0.601 | 53.6 °C | 53.6 °C | 0.648
MFAKLKKKIAEETAVAQRPGGATRIPRSVSKESVASMGADSGDDFASDGSSSREDLSSQLLRRNEQIRKLEARLSDYAEQVRNLQKIKEKLEIALEKHQDSSMRKFQEQNETFQANRAKMAEGLALALARKDQEWSEKMDQLEKEKNILTAQLQEMKNQSMNLFQRRDEMDELEGFQQQELSKIKHMLLKKEESLGKMEQELEARTRELSRTQEELMNSNQMSSDLSQKLEELQRHYSTLEEQRDHVIASKTGAESKITALEQKEQELQALIQQLSIDLQKVTAETQEKEDVITHLQEKVASLEKRLEQNLSGEEHLQELLKEKTLAEQNLEDTRQQLLAARSSQAKAINTLETRVRELEQTLQASEEQLQQSKGIVAAQETQIQELAAANQESSHVQQQALALEQQFLERTQALEAQIVALERTRAADQTTAEQGMRQLEQENAALKECRNEYERSLQNHQFELKKLKEEWSQREIVSVAMAQALEEVRKQREEFQQQAANLTAIIDEKEQNLREKTEVLLQKEQEILQLERGHNSALLQIHQLQAELEALRTLKAEEAAVVAEQEDLLRLRGPLQAEALSVNESHVTSRAMQDPVFQLPTAGRTPNGEVGAMDLTQLQKEKQDLEQQLLEKNKTIKQMQQRMLELRKTLQKELKIRPDNELFEVREKPGPEMANMAPSVTNNTDLTDAREINFEYLKHVVLKFMSCRESEAFHLIKAVSVLLNFSQEEENMLKETLEYKMSWFGSKPAPKGSIRPSISNPRIPWS [GOLGA1] | 0.556 | 49.5 °C | – | 0.0219
MFPRPLTPLAAPNGAEPLGRALRRAPLGRARAGLGGPPLLLPSMLMFAVIVASSGLLLMIERGILAEMKPLPLHPPGREGTAWRGKAPKPGGLSLRAGDADLQVRQDVRNRTLRAVCGQPGMPRDPWDLPVGQRRTLLRHILVSDRYRFLYCYVPKVACSNWKRVMKVLAGVLDSVDVRLKMDHRSDLVFLADLRPEEIRYRLQHYFKFLFVREPLERLLSAYRNKFGEIREYQQRYGAEIVRRYRAGAGPSPAGDDVTFPEFLRYLVDEDPERMNEHWMPVYHLCQPCAVHYDFVGSYERLEADANQVLEWVRAPPHVRFPARQAWYRPASPESLHYHLCSAPRALLQDVLPKYILDFSLFAYPLPNVTKEACQQ [CHST14] | 0.333 | 51.9 °C | – | -0.0549
MGDEKDSWKVKTLDEILQEKKRRKEQEEKAEIKRLKNSDDRDSKRDSLEEGELRDHRMEITIRNSPYRREDSMEDRGEEDDSLAIKPPQQMSRKEKAHHRKDEKRKEKRRHRSHSAEGGKHARVKEKEREHERRKRHREEQDKARREWERQKRREMAREHSRRERDRLEQLERKRERERKMREQQKEQREQKERERRAEERRKEREARREVSAHHRTMREDYSDKVKASHWSRSPPRPPRERFELGDGRKPGEARPAPAQKPAQLKEEKMEERDLLSDLQDISDSERKTSSAESSSAESGSGSEEEEEEEEEEEEEGSTSEESEEEEEEEEEEEEETGSNSEEASEQSAEEVSEEEMSEDEERENENHLLVVPESRFDRDSGESEEAEEEVGEGTPQSSALTEGDYVPDSPALSPIELKQELPKYLPALQGCRSVEEFQCLNRIEEGTYGVVYRAKDKKTDEIVALKRLKMEKEKEGFPITSLREINTILKAQHPNIVTVREIVVGSNMDKIYIVMNYVEHDLKSLMETMKQPFLPGEVKTLMIQLLRGVKHLHDNWILHRDLKTSNLLLSHAGILKVGDFGLAREYGSPLKAYTPVVVTLWYRAPELLLGAKEYSTAVDMWSVGCIFGELLTQKPLFPGKSEIDQINKVFKDLGTPSEKIWPGYSELPAVKKMTFSEHPYNNLRKRFGALLSDQGFDLMNKFLTYFPGRRISAEDGLKHEYFRETPLPIDPSMFPTWPAKSEQQRVKRGTSPRPPEGGLGYSQLGDDDLKETGFHLTTTNQGASAAGPGFSLKF [CDC2L1] | -0.672 | 46.5 °C | 50.3 °C | 0.114
MGEQPIFSTRAHVFQIDPNTKKNWVPTSKHAVTVSYFYDSTRNVYRIISLDGSKAIINSTITPNMTFTKTSQKFGQWADSRANTVYGLGFSSEHHLSKFAEKFQEFKEAARLAKEKSQEKMELTSTPSQESAGGDLQSPLTPESINGTDDERTPDVTQNSEPRAEPTQNALPFSHSSAISKHWEAELATLKGNNAKLTAALLESTANVKQWKQQLAAYQEEAERLHKRVTELECVSSQANAVHTHKTELNQTIQELEETLKLKEEEIERLKQEIDNARELQEQRDSLTQKLQEVEIRNKDLEGQLSDLEQRLEKSQNEQEAFRNNLKTLLEILDGKIFELTELRDNLAKLLECS [HOMER1] | 0.426 | 51 °C | 51.9 °C | 0.185
MGFLRRLIYRRRPMIYVESSEESSDEQPDEVESPTQSQDSTPAEEREDEGASAAQGQEPEADSQELVQPKTGCELGDGPDTKRVCLRNEEQMKLPAEGPEPEADSQEQVHPKTGCERGDGPDVQELGLPNPEEVKTPEEDEGQSQP [PAGE1] | -0.617 | 53.3 °C | 51.6 °C | 0.603
MGNLFGRKKQSRVTEQDKAILQLKQQRDKLRQYQKRIAQQLERERALARQLLRDGRKERAKLLLKKKRYQEQLLDRTENQISSLEAMVQSIEFTQIEMKVMEGLQFGNECLNKMHQVMSIEEVERILDETQEAVEYQRQIDELLAGSFTQEDEDAILEELSAITQEQIELPEVPSEPLPEKIPENVPVKARPRQAELVAAS [CHMP6] | 0.453 | – | 52.2 °C | 0.149
MGNTLTCCVSPNASPKLGRRAGSAELYCASDIYEAVSGDAVAVAPAVVEPAELDFGEGEGHHLQHISDREMPEDLALESNPSDHPRASTIFLSKSQTDVREKRKSNHLNHVSPGQLTKKYSSCSTIFLDDSTVSQPNLRTTVKCVTLAIYYHIKNRDANRSLDIFDERSHPLTREKVPEEYFKHDPEHKFIYRFVRTLFSAAQLTAECAIVTLVYLERLLTYAEIDICPTNWKRIVLGAILLASKVWDDQAVWNVDYCQILKDITVEDMNEMERHFLELLQFNINVPASVYAKYYFDLRSLADDNNLNFLFAPLSKERAQNLEAISRLCEDKDLCRAAMRRSFSADNFIGIQRSKAILS [CCNYL1] | -0.167 | 48.9 °C | 49.2 °C | -0.0896
MGPRARPALLLLMLLQTAVLQGRLLRSHSLHYLFMGASEQDLGLSLFEALGYVDDQLFVFYDHESRRVEPRTPWVSSRISSQMWLQLSQSLKGWDHMFTVDFWTIMENHNHSKESHTLQVILGCEMQEDNSTEGYWKYGYDGQDHLEFCPDTLDWRAAEPRAWPTKLEWERHKIRARQNRAYLERDCPAQLQQLLELGRGVLDQQVPPLVKVTHHVTSSVTTLRCRALNYYPQNITMKWLKDKQPMDAKEFEPKDVLPNGDGTYQGWITLAVPPGEEQRYTCQVEHPGLDQPLIVIWEPSPSGTLVIGVISGIAVFVVILFIGILFIILRKRQGSRGAMGHYVLAERE [HFE] | 0.207 | 55.9 °C | 57.2 °C | 0.0716
MGQQVGRVGEAPGLQQPQPRGIRGSSAARPSGRRRDPAGRTTETGFNIFTQHDHFASCVEDGFEGDKTGGSSPEALHRPYGCDVEPQALNEAIRWSSKENLLGATESDPNLFVALYDFVASGDNTLSITKGEKLRVLGYNQNGEWSEVRSKNGQGWVPSNYITPVNSLEKHSWYHGPVSRSAAEYLLSSLINGSFLVRESESSPGQLSISLRYEGRVYHYRINTTADGKVYVTAESRFSTLAELVHHHSTVADGLVTTLHYPAPKCNKPTVYGVSPIHDKWEMERTDITMKHKLGGGQYGEVYVGVWKKYSLTVAVKTLKEDTMEVEEFLKEAAVMKEIKHPNLVQLLGVCTLEPPFYIVTEYMPYGNLLDYLRECNREEVTAVVLLYMATQISSAMEYLEKKNFIHRDLAARNCLVGENHVVKVADFGLSRLMTGDTYTAHAGAKFPIKWTAPESLAYNTFSIKSDVWAFGVLLWEIATYGMSPYPGIDLSQVYDLLEKGYRMEQPEGCPPKVYELMRACWKWSPADRPSFAETHQAFETMFHDSSISEEVAEELGRAASSSSVVPYLPRLPILPSKTRTLKKQVENKENIEGAQDATENSASSLAPGFIRGAQASSGSPALPRKQRDKSPSSLLEDAKETCFTRDRKGGFFSSFMKKRNAPTPPKRSSSFREMENQPHKKYELTGNFSSVASLQHADGFSFTPAQQEANLVPPKCYGGSFAQRNLCNDDGGGGGGSGTAGGGWSGITGFFTPRLIKKTLGLRAGKPTASDDTSKPFPRSNSTSSMSSGLPEQDRMAMTLPRNCQRSKLQLERTVSTSSQPEENVDRANDMLPKKSEESAAPSRERPKAKLLPRGATALPLRTPSGDLAITEKDPPGVGVAGVAAAPKGKEKNGGARLGMAGVPEDGEQPGWPSPAKAAPVLPTTHNHKVPVLISPTLKHTPADVQLIGTDSQGNKFKLLSEHQVTSSGDKDRPRRVKPKCAPPPPPVMRLLQHPSICSDPTEEPTALTAGQSTSETQEGGKKAALGAVPISGKAGRPVMPPPQVPLPTSSISPAKMANGTAGTKVALRKTKQAAEKISADKISKEALLECADLLSSALTEPVPNSQLVDTGHQLLDYCSGYVDCIPQTRNKFAFREAVSKLELSLQELQVSSAAAGVPGTNPVLNNLLSCVQEISDVVQR [ABL2] | 0.0755 | 49.2 °C | 49.1 °C | -0.139
MGREFGNLTRMRHVISYSLSPFEQRAYPHVFTKGIPNVLRRIRESFFRVVPQFVVFYLIYTWGTEEFERSKRKNPAAYENDK [UQCRQ] | -0.497 | 53.1 °C | 51.8 °C | -0.186
